Test results taken from PMC9129083.

biological target: Pst_A23 (Puccinia striiformis f. sp. tritici, UniProt A0A0L0VHF6 =M+36-181, internal_change); test: EMSA

Binder	binding result
AGGAGGCAAGGACCCACCUAGGCA (ssRNA) [M1-m-RNA]	no binding
AACUUCUUCUUUACUUCCUUUCCU (ssRNA) [M2-RNA]	binds
ACUUCUUCUUGUUGUUGCUCCUGCUGC (ssRNA) [TaWRKY53-RNA]	binds
GAAGAAGAAGAGAAGACCUGAAGA (ssRNA) [M1-RNA]	binds
UUUCCCUAAAGUUUCUUACAAUGAUCUGGUUGAAGCAACAAAG (ssRNA) [TaXa21-RNA]	binds
